Assay [1] has as its target Acanthaster cf. solaris relaxin family peptide receptor/leucine-rich repeat G protein-coupled receptor 3, N-terminally modified (prolactin signal peptide, FLAG tag) (Acanthaster cf. solaris).
Assay [2] deals with Asterias rubens relaxin family peptide receptor/leucine-rich repeat G protein-coupled receptor 3 (isoform X2) (Asterias rubens).
In assay [3] the target is modified ArubRXFP/LGR3 (N-terminal region with the predicted internal signal peptide replaced by the prolactin precursor signal peptide) (Asterias rubens).
For assay [4], the system named is ovarian fragments of A. cf. solaris. The experiment in a line: In vitro spawning assay with ovarian fragments of A. cf. solaris. The following applies: 1 h, semi-quantitative. From the text:
Adult A. cf. solaris were collected from the Great Barrier Reef by Pacific Marine Group divers associated with the Great Barrier Reef Marine Park Authority (GBRMPA) before being transported to the University of the Sunshine Coast aquarium facility. Animals were briefly maintained in a re-circulating protein-skimmed and aerated saltwater system of approximately 1500 L. The animals used were approximately 25–55 cm in diameter and kept unfed for the duration of the experiment. The gender and ovarian maturation stage was determined by using a minor gonad tissue biopsy technique and, thereafter, animals were individually segregated in a flowthrough aerated tank filled with approximately 55 L of filtered seawater for a minimum of 24 h to recover and acclimatize.
AsoRGP1 and AsoRGP2 were synthesized as described previously. In addition, a modified form of AsoRGP2 was synthesized in which the N-terminal residue of the A-chain (glutamine, Q) was substituted with pyroglutamate (pQ), recognizing the possibility of this potential post-translational modification. […] In vitro spawning assays using ovarian fragments were performed following procedures described previously. In brief, the ovaries were excised and cut using scissors into small fragments containing only a few lobes. The ovarian fragments were then incubated in artificial seawater containing RGP-type peptides at a range of concentrations (2 × 10^−10–2 × 10^−6 M) for 1 h. As a control experiment, ovarian fragments were incubated in artificial seawater alone. The samples were examined to determine whether or not in vitro spawning had occurred and were scored as follows: (+ + +) spawning occurred and most oocytes had matured; (+ +) about 50% of oocytes had matured, ( +) a few oocytes had matured and ( −): no spawning occurred. […] Means ± standard error of mean (SEM) were determined from four separate assays using ovaries from four different animals.

For a further assay, the target named is T1, AsolRXFP/LGR3 (Acanthaster planci, UniProt A0A8B7XXQ8).
T1 sequence (A0A8B7XXQ8 1-847): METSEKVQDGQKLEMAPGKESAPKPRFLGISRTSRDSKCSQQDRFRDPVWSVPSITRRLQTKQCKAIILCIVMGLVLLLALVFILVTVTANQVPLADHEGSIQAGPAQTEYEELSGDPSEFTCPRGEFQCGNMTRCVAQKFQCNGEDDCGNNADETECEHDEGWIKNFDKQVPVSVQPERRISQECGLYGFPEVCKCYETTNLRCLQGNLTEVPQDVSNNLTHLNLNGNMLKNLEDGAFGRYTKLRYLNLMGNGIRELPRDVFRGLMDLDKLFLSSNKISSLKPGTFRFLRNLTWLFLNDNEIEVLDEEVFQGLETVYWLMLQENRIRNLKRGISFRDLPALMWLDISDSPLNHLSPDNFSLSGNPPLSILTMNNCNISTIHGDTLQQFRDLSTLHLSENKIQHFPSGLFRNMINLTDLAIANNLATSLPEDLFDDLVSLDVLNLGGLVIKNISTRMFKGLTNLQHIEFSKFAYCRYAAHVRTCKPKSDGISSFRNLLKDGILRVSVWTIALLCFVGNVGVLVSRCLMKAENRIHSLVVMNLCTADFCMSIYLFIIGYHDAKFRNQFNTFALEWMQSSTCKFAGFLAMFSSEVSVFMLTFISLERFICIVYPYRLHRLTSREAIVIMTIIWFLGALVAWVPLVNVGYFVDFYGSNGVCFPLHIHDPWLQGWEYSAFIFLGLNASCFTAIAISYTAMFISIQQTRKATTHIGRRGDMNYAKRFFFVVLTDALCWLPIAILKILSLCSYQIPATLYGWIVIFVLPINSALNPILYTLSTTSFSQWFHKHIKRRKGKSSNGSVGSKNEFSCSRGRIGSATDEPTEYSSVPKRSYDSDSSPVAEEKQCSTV
The experiment in a line: CRE reporter gene assay in CHO cells stably expressing AsolRXFP/LGR3. It is filed as cell-based, A. cf. solaris. To be noted: CHO-AsolRXFP/LGR3 cells, increasing concentrations. On the procedure:
Human embryonic kidney (HEK) 293T cells were grown in complete Dulbecco’s modified Eagle medium (DMEM; Gibco) and Chinese hamster ovary (CHO) cells in complete DMEM/F12 (Gibco). Media was supplemented with 10% fetal bovine serum, 1% penicillin/streptomycin, and 1% L‐glutamine (complete media; All from Gibco). HEK-293T cells were transfected with LipofectAMINE 2000 (Invitrogen) and CHO cells with CHO TransIT and CHO-Mojo (Mirus), both according to the manufacturer’s instructions.
CHO and HEK293T cells stably expressing AsolRXFP/LGR3 were generated by lentiviral transduction. HEK293T cells were plated in 10 cm dishes for transfection with pLenti X1-Ef1α-COT-RXFP-like 2-IRES-GFP along with the lentiviral packaging and envelope plasmids pMDL, pRSV‐Rev, and pCMV‐VSV‐G, using Lipofectamine 2000. The following day, media containing lentivirus was harvested and filtered through a 0.45 μm syringe filter. Fresh CHO and HEK293T cells in 10 cm plates were transduced by replacing the cell culture media with the filtered media containing lentivirus, mixed with 4 μg/mL hexadimethrine bromide (Polybrene) to increase transduction efficiency. Three rounds of transduction were performed over 32 h, before cells were allowed to recover for three days in complete media. Transduced cells were sorted from non-transduced cells using the GFP reporter by fluorescence-activated cell sorting (FACS), using a Becton Dickinson FACSAria III as previously described. Single, live cells with low GFP expression were selected to represent low AsolRXFP/LGR3 expression and were subsequently grown to confluency in a T175 flask and cryopreserved.
The ability of the A. cf. solaris receptors to respond to A. cf. solaris RGP1 and RGP2 peptides was tested using a pCRE β-galactosidase reporter gene assay in CHO cells stably expressing AsolRXFP/LGR3 or HEK-293T cells transfected with AsolRXFP/LGR4 (long) or AsolRXFP/LGR4 (short), as described in detail previously. Importantly, the pCRE β-galactosidase reporter gene assay measures both Gs and Gq activation downstream of GPCR activation by monitoring CREB-mediated gene transcription. Cells were seeded in 96 well plates and were left to grow overnight at 37 °C in an incubator with 5% CO2. The next day the cells were transfected with different amounts of the pCRE reporter gene DNA [57] and/or pcDNA3.1 receptor constructs, as described above, and were left to grow overnight in an incubator. Triplicate wells in each plate were transfected with the equivalent amount of pCRE reporter gene DNA and pcDNA3.1 without a receptor-encoding insert as the background CRE activity control. The next day cells were exposed in triplicate wells to increasing concentrations of peptides diluted in media for 6 h at 37 °C in an incubator. Triplicate parallel wells contained 5 µM forskolin and blank media as positive and negative controls, respectively. At the end of the incubation period, the media was aspirated, and the plate was stored at − 80 °C until development. Plates were thawed for the development of β-galactosidase activity, as described previously, with absorbance being read at 570 nm on an Epoch 2 microplate reader. The data were analyzed as the percentage of the response induced by 5 µM forskolin and pooled followed by fitting to a three-parameter sigmoidal dose–response curve using GraphPad Prism 10. Experiments were performed at least three times with triplicate determinations in each assay (Additional file 17: Dataset S10).

For the substance “Acanthaster cf. solaris relaxin-like gonad-stimulating peptide 1 (ligand)”, in assay [1], the pEC50 of CRE reporter gene activation in CHO-AsolRXFP/LGR3 cells was found to be 7.8 pEC50 and the potency (EC50) of CRE reporter gene activation in CHO-AsolRXFP/LGR3 cells is 16 nM.

In assay [2], “Asterias rubens relaxin-like gonad-stimulating peptide 2 (ligand)” had an EC50 of peptide-induced luminescence (GFP-apoaequorin G5A, chimeric G-protein GqS5) in CHO-K1 cells transfected with ArubRXFP/LGR3, 10^-14 to 10^-5 M of 383 nM. In addition, in assay [3], the EC50 of peptide-induced luminescence (GFP-apoaequorin G5A, chimeric G-protein GqS5) in CHO-K1 cells transfected with modified ArubRXFP/LGR3 was 510 nM.

In the case of “Acanthaster cf. solaris Relaxin-like gonad-stimulating peptide 2 modified with pyroglutamate replacing glutamine at the N-terminus of the A-chain [Asol-pQ-RGP2]”, the “relative potency in inducing shedding of mature eggs / spawning” value in assay [4] (compared with RGP1 or unmodified RGP2) was “less potent than AsolRGP1 and AsolRGP2”; in assay [4] (compared with RGP1 or unmodified RGP2, listed as Asol-pQ-RGP), “less potent than unmodified AsolRGP2”.

For the substance “recombinant human relaxin-2 [H2 relaxin, reference compound]”, the “cAMP activity / CRE reporter gene activation” value on AsolRXFP/LGR3 is on record as “No response”.
